Blank lines part the entries; values can stand above or below the binder they belong to.
Tests used:
human serum albumin [1] = biological target: T1, human serum albumin (human, UniProt P02768 25-609); assay: SPR (Biacore), immobilised HSA, pH 7.4
T1 construct: mature; Bought protein; biotinylated in the Octet and HTRF assays; also called HSA; HuSA
Description: (§1) Affinities for mouse, human, and cynomolgus serum were also measured at pH 7.4 for four (4) AFFIMER® binders using surface plasmon resonance (SPR) (FIG. 5, Table 5). […] A concentration titration of AFFIMER® monomers was run as analyte at a flow rate of 30 μl/min or 60 μl/min. Fc2-1, Fc3-1 and Fc4-1 kinetic data was blank subtracted and fit to a 1:1 Langmuir binding model (BIAcore Evalution software; GE) to calculate KD values.

human serum albumin [2] = biological target: T1, human serum albumin; assay: Biacore, immobilised HSA, pH 7.4
Description: as §1

canine serum albumin = canine serum albumin (canine, UniProt P49822 25-608); assay: binding ELISA on coated albumin, pH 6.0, panel 'Canine SA Binding at pH 6.0'
Description: (§2) Briefly, ELISA was performed as follow:
(§3) Human (Sigma-Aldrich); Cynomolgus and Mouse (Abcam); Equine (Abcam); Canine (Abcam); Mouse (Sigma-Aldrich); Rabbit (Sigma-Aldrich); Porcine (Sigma-Aldrich);, and Rat (Sigma-Aldrich) serum albumin were coated overnight on 96 well plates (Corning Costar) at 1 μg/ml in PBS at the appropriate pH (pH 6.0 or 7.4). Plates were saturated using 5% Casein (Sigma-Aldrich) buffer in PBS. […] Plates were then washed and AFFIMER® proteins were detected using a biotinylated polyclonal antibody anti-Cystatin (R&D System) for 90 minutes. After washing, streptavidin-HRP (Thermo Fisher Scientific) was added and incubated for 30 minutes.

mouse serum albumin [3] = biological target: T2, mouse serum albumin (mouse, UniProt P07724 25-608); assay: BLI (Octet), biotinylated albumin on SA sensor, pH 7.4
T2 construct: also called MSA
Procedure, shortened: (§4)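 SA sensor, antigen 1 μg/ml × 600 s; buffer PBS-T 0.01% Tween 20 + 1% casein, pH 6.0 or 7.4; 25° C, 1000 rpm. 1:1 global fit, Rmax unlinked.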

human serum albumin [4] = biological target: T1, human serum albumin; assay: as above
Procedure, shortened: as §4

cynomolgus serum albumin [5] = biological target: T3, cynomolgus serum albumin (cynomolgus); assay: as above
T3 construct: also called CSA; cyno serum albumin
Procedure, shortened: as §4

equine serum albumin = equine serum albumin (equine, UniProt P35747 25-607); assay: binding ELISA on coated albumin, pH 7.4, panel 'Equine SA Binding at pH 7.4' (Table 6 gives NA for this pair)
Description: as §2, §3

mouse serum albumin [6] = biological target: T2, mouse serum albumin; assay: BLI (Octet), biotinylated albumin on SA sensor, pH 6.0
Procedure, shortened: as §4

human serum albumin [7] = biological target: T1, human serum albumin; assay: as above
Procedure, shortened: as §4

cynomolgus serum albumin [8] = biological target: T3, cynomolgus serum albumin; assay: as above
Procedure, shortened: as §4

recombinant FcRn = biological target: T4, recombinant FcRn (Homo sapiens (Human), UniProt P55899 24-297; P61769 21-119, Biotinylated (site and any tag carrying the biotin are not stated); captured on a Biotin CAPture chip.); assay: Biacore, biotinylated FcRn on Biotin CAPture chip, PBS-T pH 6.0
T4 construct: Captured on a Biotin CAPture chip; also called biotinylated FcRn (Amsbio); copies: 1 + 1
Description: FcRn Biacore binding analysis was performed using Biotin CAPture chip according to the manufacturer's protocol (GE Healthcare). Briefly, Biotin CAPture reagent was run for 300 sec at a 2 μl/min flow rate over surfaces Fc1 and Fc2 followed by the capture of biotinylated FcRn (Amsbio) at 10 μg/mL with a contact time of 50 seconds, run at 10 μl/min delivered to Fc2 only. […] Surface Fc1 and Fc2 regeneration was performed according to the manufacturer's protocol.

rabbit serum albumin = rabbit serum albumin (rabbit, UniProt P49065 25-608); assay: binding ELISA on coated albumin, pH 7.4, panel 'Rabbit SA Binding at pH 7.4' (Table 6 gives NA for this pair)
Description: as §2, §3

porcine serum albumin = porcine serum albumin (porcine, UniProt P08835 25-607); assay: binding ELISA, coated albumin, pH 7.4
Description: as §2, §3

human serum albumin [9] = biological target: T1, human serum albumin; assay: binding ELISA, coated albumin, pH 7.4
Description: as §2, §3

cynomolgus serum albumin [10] = biological target: T3, cynomolgus serum albumin; assay: binding ELISA, coated albumin, pH 7.4
Description: as §2, §3

rat serum albumin [11] = biological target: T5, rat serum albumin (rat, UniProt P02770 25-608); assay: binding ELISA, coated albumin, pH 7.4
Description: as §2, §3

mouse serum albumin [12] = biological target: T2, mouse serum albumin; assay: SPR (Biacore T200), albumin amine-coupled to CM5, Affimer analyte, pH 7.4
Description: as §1

human serum albumin [13] = biological target: T1, human serum albumin; assay: as above
Description: as §1

cynomolgus serum albumin [14] = biological target: T3, cynomolgus serum albumin; assay: as above
Description: as §1

mouse serum albumin [15] = biological target: T2, mouse serum albumin; assay: Octet biolayer interferometry, biotinylated albumin on SA sensors, pH 6.0
Description: (§5) Biotinylated antigen was captured onto SA sensors at 1 μg/ml for 600 seconds in a buffer comprising PBS-T (0.01% Tween 20)+1% casein at either pH 6.0 or 7.4. Association was carried out for 300 seconds and dissociation for 600 seconds, and regeneration was performed using 10 mM glycine pH 1.5 (GE Healthcare) for 3×5 seconds. All steps were carried out at 1000 rpm and 25° C. Purified AFFIMER® polypeptide in two-fold serial dilutions was analyzed at a starting concentration of approximately 10× K_{D value}. Kinetics analyses were carried out using the Octet data analysis software, subtracting the reference sensor (loaded with antigen), aligning the Y-axis to baseline, and using inter-step correction to align association to dissociation. Savitzky-Golay filtering was applied and the data processed. Analysis of the data was carried out with a 1:1 model, global fit, Rₘₐₓ unlinked by sensor.

human serum albumin [16] = biological target: T1, human serum albumin; assay: as above
Description: as §5

cynomolgus serum albumin [17] = biological target: T3, cynomolgus serum albumin; assay: as above
Description: as §5

cynomolgus serum albumin [18] = biological target: T3, cynomolgus serum albumin; assay: binding ELISA on coated albumin, pH 6.0, panel 'CSA Binding at pH 6.0'
Description: as §2, §3

human serum albumin [19] = biological target: T1, human serum albumin; assay: binding ELISA on coated albumin, pH 6.0, panel 'HSA Binding at pH 6.0'
Description: as §2, §3

mouse serum albumin [20] = biological target: T2, mouse serum albumin; assay: Octet biolayer interferometry, biotinylated albumin on SA sensors, pH 7.4
Description: as §5

human serum albumin [21] = biological target: T1, human serum albumin; assay: as above
Description: as §5

cynomolgus serum albumin [22] = biological target: T3, cynomolgus serum albumin; assay: as above
Description: as §5

rat serum albumin [23] = biological target: T5, rat serum albumin; assay: binding ELISA on coated albumin, pH 6.0, panel 'Rat SA Binding at pH 6.0'
Description: as §2, §3

[24] = biological target: T6, mouse PD-L1-Fc tagged recombinant antigen (R&D systems) (mouse, UniProt Q9EP73 19-238); assay: SPR (Biacore), mouse PD-L1-Fc captured on Protein A chip, single cycle kinetics
T6 construct: Captured on a Protein A chip; not shown: Fc part of the bought protein, not described
Description: (§6) Aantigen was captured using a Protein A chip (GE Healthcare) and the AFFIMER® ILF format was run as an analyte using single cycle kinetics titrating from a maximum concentration of 1 nM, and regenerating using 10 mM glycine pH 1.5 (GE Healthcare).

mouse serum albumin [25] = biological target: T2, mouse serum albumin; assay: binding ELISA on coated MSA, panel title 'Affimer binding to MSA, pH 7' (legend: pH 7.4)
Description: as §3
(§7) Briefly, PD-1 was coated overnight on the plate at 1 μg/ml in carbonate buffer. Then plates were saturated using 5% Casein/PBS buffer. […] After saturation, the mix was added to the plates and incubated for 90 minutes. Plates were then washed and the detection polyclonal antibody, biotinylated anti-PD-L1, was added. After washing the plates, streptavidin-HRP was added for 30 minutes. After a final wash, development of the reaction was performed using TMB (Pierce) and the plates were read using a plate reader at 450 nm (FIG. 26C).

[26] = biological target: T6, mouse PD-L1-Fc tagged recombinant …; assay: Biacore single cycle kinetics, mouse PD-L1-Fc captured on Protein A chip
Description: as §6

mPD-L1 = biological target: T7, mPD-L1 (mouse, UniProt Q9EP73 19-238, limits assumed); assay: competition ELISA: mPD-L1 pre-incubated with the AFFIMER polypeptide and added to coated mPD-1; blocked ligand mPD-1
T7 construct: May be the same reagent as the mouse PD-L1-Fc of the Biacore run
Description: as §7

T6 sequence (Q9EP73 19-238 limits assumed): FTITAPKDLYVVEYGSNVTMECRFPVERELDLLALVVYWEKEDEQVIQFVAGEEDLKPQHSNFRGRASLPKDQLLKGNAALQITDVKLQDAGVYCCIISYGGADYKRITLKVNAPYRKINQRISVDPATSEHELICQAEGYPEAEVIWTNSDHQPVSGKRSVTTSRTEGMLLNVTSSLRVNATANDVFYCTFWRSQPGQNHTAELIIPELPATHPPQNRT
T3 sequence (A2V9Z4 25-608): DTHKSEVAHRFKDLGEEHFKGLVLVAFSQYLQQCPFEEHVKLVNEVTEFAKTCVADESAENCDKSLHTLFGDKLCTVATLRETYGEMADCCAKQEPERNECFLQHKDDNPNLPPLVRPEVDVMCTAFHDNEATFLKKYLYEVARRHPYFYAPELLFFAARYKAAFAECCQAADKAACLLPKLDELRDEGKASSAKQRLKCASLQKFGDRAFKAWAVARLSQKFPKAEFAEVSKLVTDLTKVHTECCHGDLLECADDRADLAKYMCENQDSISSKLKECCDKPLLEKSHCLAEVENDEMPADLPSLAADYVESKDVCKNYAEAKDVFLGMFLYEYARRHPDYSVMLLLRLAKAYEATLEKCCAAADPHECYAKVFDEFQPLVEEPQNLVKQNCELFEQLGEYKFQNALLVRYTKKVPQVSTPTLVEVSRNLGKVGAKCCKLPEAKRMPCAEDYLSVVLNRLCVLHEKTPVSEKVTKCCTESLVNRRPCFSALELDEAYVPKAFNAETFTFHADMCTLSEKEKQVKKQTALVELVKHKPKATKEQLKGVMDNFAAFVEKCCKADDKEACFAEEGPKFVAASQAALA
T2 sequence (P07724 25-608 limits assumed): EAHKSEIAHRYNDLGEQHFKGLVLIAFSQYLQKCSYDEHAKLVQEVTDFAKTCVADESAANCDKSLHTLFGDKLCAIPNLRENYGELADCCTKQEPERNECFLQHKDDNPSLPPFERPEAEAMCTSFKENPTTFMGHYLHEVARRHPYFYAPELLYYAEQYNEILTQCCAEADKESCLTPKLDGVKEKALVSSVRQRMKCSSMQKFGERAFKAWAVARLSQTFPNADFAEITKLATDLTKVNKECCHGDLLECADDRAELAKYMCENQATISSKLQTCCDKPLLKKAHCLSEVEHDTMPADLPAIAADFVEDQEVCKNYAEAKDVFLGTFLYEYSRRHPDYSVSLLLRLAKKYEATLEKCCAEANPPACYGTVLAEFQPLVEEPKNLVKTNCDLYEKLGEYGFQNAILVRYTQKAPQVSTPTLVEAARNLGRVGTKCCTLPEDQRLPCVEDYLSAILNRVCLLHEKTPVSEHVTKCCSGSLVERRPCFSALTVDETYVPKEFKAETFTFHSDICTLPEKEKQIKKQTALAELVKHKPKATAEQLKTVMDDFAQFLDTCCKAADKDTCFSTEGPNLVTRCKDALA
T5 sequence (P02770 25-608 limits assumed): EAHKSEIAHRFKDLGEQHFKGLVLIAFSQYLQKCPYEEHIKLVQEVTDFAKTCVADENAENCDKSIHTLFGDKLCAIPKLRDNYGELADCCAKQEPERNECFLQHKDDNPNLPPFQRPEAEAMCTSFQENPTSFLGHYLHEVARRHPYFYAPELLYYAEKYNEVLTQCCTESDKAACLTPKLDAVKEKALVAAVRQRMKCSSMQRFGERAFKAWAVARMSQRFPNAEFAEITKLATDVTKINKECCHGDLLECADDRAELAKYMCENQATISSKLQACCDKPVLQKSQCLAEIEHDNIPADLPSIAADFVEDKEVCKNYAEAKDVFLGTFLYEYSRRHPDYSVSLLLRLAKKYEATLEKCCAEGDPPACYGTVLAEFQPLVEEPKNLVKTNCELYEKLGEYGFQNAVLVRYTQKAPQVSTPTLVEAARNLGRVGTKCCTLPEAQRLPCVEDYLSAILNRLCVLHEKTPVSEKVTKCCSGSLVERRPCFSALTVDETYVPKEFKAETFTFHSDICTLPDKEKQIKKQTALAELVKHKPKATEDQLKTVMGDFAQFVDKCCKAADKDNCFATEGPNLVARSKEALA
T7 sequence (Q9EP73 19-238 limits assumed): as the sequence (Q9EP73 19-238 limits assumed) above
Chain of rabbit serum albumin (P49065 25-608 limits assumed): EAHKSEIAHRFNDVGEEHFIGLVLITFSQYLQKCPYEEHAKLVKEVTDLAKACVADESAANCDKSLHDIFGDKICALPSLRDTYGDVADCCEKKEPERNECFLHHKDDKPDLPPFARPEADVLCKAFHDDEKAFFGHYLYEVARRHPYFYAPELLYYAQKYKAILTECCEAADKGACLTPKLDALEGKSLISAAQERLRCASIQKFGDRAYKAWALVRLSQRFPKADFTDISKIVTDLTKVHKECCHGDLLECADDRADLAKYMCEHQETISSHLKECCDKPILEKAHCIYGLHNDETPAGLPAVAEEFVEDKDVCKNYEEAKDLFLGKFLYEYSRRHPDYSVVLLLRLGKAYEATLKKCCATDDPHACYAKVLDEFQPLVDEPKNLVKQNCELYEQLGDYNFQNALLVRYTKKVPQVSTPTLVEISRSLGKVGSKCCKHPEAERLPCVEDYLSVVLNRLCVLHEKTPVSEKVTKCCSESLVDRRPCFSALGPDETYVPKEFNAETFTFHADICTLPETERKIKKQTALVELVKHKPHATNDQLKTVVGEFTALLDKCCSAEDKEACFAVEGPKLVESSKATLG
Chain of porcine serum albumin (P08835 25-607 limits assumed): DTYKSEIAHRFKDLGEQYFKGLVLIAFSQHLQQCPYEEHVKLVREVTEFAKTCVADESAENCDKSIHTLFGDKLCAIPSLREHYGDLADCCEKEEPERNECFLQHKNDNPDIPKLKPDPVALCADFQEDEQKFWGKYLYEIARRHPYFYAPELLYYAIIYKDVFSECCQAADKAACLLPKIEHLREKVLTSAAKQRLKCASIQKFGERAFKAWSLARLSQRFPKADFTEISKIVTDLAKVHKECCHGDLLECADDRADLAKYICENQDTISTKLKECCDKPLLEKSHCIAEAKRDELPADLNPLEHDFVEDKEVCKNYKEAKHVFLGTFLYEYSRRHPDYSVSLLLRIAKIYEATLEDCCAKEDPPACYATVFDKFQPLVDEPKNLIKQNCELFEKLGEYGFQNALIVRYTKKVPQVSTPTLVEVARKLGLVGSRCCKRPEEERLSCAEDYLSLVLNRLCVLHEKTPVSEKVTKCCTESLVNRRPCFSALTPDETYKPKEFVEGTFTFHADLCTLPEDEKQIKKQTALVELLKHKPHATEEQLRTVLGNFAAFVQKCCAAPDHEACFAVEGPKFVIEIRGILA
Chain of canine serum albumin (P49822 25-608 limits assumed): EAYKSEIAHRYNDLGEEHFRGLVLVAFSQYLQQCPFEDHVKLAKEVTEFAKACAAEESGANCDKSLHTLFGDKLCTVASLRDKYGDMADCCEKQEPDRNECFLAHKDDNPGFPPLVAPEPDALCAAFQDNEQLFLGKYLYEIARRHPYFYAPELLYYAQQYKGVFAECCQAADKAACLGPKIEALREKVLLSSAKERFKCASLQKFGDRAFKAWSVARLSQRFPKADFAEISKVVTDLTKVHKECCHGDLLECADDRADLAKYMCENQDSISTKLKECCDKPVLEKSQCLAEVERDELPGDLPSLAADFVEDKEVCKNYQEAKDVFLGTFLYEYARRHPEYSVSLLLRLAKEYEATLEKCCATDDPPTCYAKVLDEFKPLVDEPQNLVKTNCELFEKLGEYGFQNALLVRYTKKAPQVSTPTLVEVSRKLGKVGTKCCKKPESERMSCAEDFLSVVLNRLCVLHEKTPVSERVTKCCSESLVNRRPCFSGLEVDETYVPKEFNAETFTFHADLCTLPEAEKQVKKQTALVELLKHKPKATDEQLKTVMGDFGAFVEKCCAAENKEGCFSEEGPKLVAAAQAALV
Chain of equine serum albumin (P35747 25-607 limits assumed): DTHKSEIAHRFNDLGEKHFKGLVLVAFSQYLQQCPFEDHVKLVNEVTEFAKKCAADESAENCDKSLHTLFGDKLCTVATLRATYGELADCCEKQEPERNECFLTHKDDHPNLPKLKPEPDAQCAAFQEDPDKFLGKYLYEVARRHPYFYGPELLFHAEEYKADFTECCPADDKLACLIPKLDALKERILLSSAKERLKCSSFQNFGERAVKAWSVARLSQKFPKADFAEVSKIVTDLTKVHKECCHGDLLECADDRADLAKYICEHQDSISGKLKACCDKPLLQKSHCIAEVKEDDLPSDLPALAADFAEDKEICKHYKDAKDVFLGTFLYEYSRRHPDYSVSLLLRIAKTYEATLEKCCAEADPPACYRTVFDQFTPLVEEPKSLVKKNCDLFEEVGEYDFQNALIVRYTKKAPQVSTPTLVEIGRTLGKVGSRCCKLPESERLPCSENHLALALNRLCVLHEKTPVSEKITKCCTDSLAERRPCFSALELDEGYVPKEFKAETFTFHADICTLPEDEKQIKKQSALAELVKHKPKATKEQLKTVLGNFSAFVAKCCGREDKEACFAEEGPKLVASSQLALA

- Kd (human serum albumin [1]): ~3 nM
- Kd (human serum albumin [2]): 3.21 nM
- koff (human serum albumin [2]): 0.00663 s⁻¹
- kon (human serum albumin [2]): 2.07e+06 M⁻¹ s⁻¹
B1: HSA-41 CQ (designed binder)
chain: MIPRGLSEAKPATPEIQEIVDKVKPQLEEKTNETYGKLEAVQYKTQVLANFFQRRWPGSTNYYIKVRAGDNKYMHLKVFNGPWKFRNTDRGADRVLTGYQVDKNKDDELTGFAAAGGRAEQKLISEEDLGCAENLYFQGGAAGHHHHHH
notes: Purified in the presence of 5 mM TCEP; also called HSA-41 free C-terminal cysteine format (CQ); HAS-41 CQ

- EC50 (read off the curve) (canine serum albumin): ~20 nM
- Kd (mouse serum albumin [3]): 622 nM
- Kd (human serum albumin [4]): 40.5 nM
- Kd (cynomolgus serum albumin [5]): 213 nM
- binding result (equine serum albumin): binds
- Kd (mouse serum albumin [6]): 511 nM
- Kd (human serum albumin [7]): 23.4 nM
- Kd (cynomolgus serum albumin [8]): 133 nM
- binding result (recombinant FcRn): no binding
- binding result (rabbit serum albumin): binds
- EC50 (porcine serum albumin): 894 nM
- EC50 (human serum albumin [9]): 18.9 nM
- EC50 (cynomolgus serum albumin [10]): 9.55 nM
- EC50 (rat serum albumin [11]): 16.1 nM
- Kd (mouse serum albumin [12]): 855 nM
- koff (mouse serum albumin [12]): 0.0981 s⁻¹
- kon (mouse serum albumin [12]): 115000 M⁻¹ s⁻¹
- Kd (human serum albumin [13]): 350 nM
- koff (human serum albumin [13]): 0.0183 s⁻¹
- kon (human serum albumin [13]): 52200 M⁻¹ s⁻¹
- Kd (cynomolgus serum albumin [14]): 419 nM
- koff (cynomolgus serum albumin [14]): 0.0199 s⁻¹
- kon (cynomolgus serum albumin [14]): 47600 M⁻¹ s⁻¹
- koff (mouse serum albumin [15]): 0.0596 s⁻¹
- kon (mouse serum albumin [15]): 117000 M⁻¹ s⁻¹
- koff (human serum albumin [16]): 0.00501 s⁻¹
- kon (human serum albumin [16]): 214000 M⁻¹ s⁻¹
- koff (cynomolgus serum albumin [17]): 0.00611 s⁻¹
- kon (cynomolgus serum albumin [17]): 45700 M⁻¹ s⁻¹
- EC50 (read off the curve) (cynomolgus serum albumin [18]): ~20 nM
- EC50 (read off the curve) (human serum albumin [19]): ~7 nM
- koff (mouse serum albumin [20]): 0.0509 s⁻¹
- kon (mouse serum albumin [20]): 81800 M⁻¹ s⁻¹
- koff (human serum albumin [21]): 0.00517 s⁻¹
- kon (human serum albumin [21]): 128000 M⁻¹ s⁻¹
- koff (cynomolgus serum albumin [22]): 0.0148 s⁻¹
- kon (cynomolgus serum albumin [22]): 69600 M⁻¹ s⁻¹
- EC50 (read off the curve) (rat serum albumin [23]): ~1 nM
B2: HSA-20 (designed binder)
chain: MIPRGLSEAKPATPEIQEIVDKVKPQLEEKTNETYGKLEAVQYKTQVLAGYWAAKWPGSTNYYIKVRAGDNKYMHLKVFNGPFPNTSYDLQADRVLTGYQVDKNKDDELTGFHHHHHH

- Kd [24]: 0.0906 nM
- binding result (mouse serum albumin [25]): binds
- koff [26]: 0.0025 s⁻¹
- kon [26]: 2.76e+07 M⁻¹ s⁻¹
- IC50 (mPD-L1): 135 nM
B3: AVA04-182 XT20 (designed binder)
chain: MIPRGLSEAKPATPEIQEIVDKVKPQLEEKTNETYGKLEAVQYKTQVLAFALPEFEYMSTNYYIKVRAGDNKYMHLKVFNGPPMIRRKNEVADRVLTGYQVDKNKDDELTGFAEAAAKEAAAKEAAAKEAAAKEAAAKEAAAKMIPRGLSEAKPATPEIQEIVDKVKPQLEEKTNETYGKLEAVQYKTQVLAFALPEFEYMSTNYYIKVRAGDNKYMHLKVFNGPPMIRRKNEVADRVLTGYQVDKNKDDELTGFAEAAAKEAAAKEAAAKEAAAKEAAAKEAAAKMIPRGLSEAKPATPEIQEIVDKVKPQLEEKTNETYGKLEAVQYKTQVLANFFQRRWPGSTNYYIKVRAGDNKYMHLKVFNGPWKFRNTDRGADRVLTGYQVDKNKDDELTGFHHHHHH
